From the DeepSol protein solubility set

Assay: soluble on expression in E. coli; label from the status in PepcDB or PDB records

MYTFDTTDHKSPCCNFQWYIFRKQGESRIITCELFGVIVSLENRWDWLEFMIDDSLQLTAFRCPKRDKLGMETLLQLGDVAQVTGNWKLSNGAFLNATKIAIHNNPDVECKYWLQQIQKYKSKVCELEIPSDWIRRQQRAHNLKTDAVLSFSAQVSTAAATCWKLWKKHFNQGGKISLQRLWEVIQRENCPKMQELSSCRRNQIVQLLIHLGYLIPLSKEPETYVLLIDDILDKQVMQIFNQNIASKTLSLREVAYRLEEYFHVEEISLERVEESILRLAYKEKVEQV
soluble on expression in E. coli: not soluble

MGSDKIHHHHHHTYTPGTMGEGVVYYLPKTEIELQVTATKVVYTPGEFCQYADRYLRLTGISSQPEEHWEINSIKVNSIGIPDPDNAYAVKLKDKSAASQVELTPEGIIKAINTTSPIEKAPVTKVADTVKKRIDPRSFMTEEILIAGSTAKMAELVAKEIYNIRESKNSLTRGQADYMPKDGAALKLMLDNLDEQEQAMMQMFAGTTDRIEKSFTIRIKPEADMKEKVAFRFSKKLGMLDADNLSGEPYYISIVNQETLPPMDPKGKEKKKTDGVIYNIPGKAQVTVFTPNKRYFDGELPVTQFGTTECLIDNLFNKKVNTRVIFNPNTGGIVKIDKD
soluble on expression in E. coli: not soluble

GPGSMLYDEEECIKVIVVGDGNVGKTCMLRRFVRGDFVEQYRKTIGAEFMEKDVFLRSSKTMVKLMLWDTAGQEVFNALTQAYYRGAGAAILTFSTVDRDSLMSIAGWKQRVESVCGCITMVLCQTKFDLSHEAVITHAEAEGLASQLEVPLFRVSAKDDFNVRQLFEFTAQQCVENSAQDEAPVDDMP
soluble on expression in E. coli: not soluble

MISVFDIFKVGIGPSSSHTVGPMKAAKQFVDELSEHKLLAKTDRLVADVYGSLSLTGRGHSTDIAIVMGLMGYLPDNVDIERIDSVIQQVKQEHKLVLAEANPAETKIIDFDFYNDMPFHSTFLARHENGMTLKAFAGETLLYEKTFYSIGGGFIVDDEHFEQ
soluble on expression in E. coli: not soluble

MEKEKSLMKKQSKKSKKQNIEINYLDLIPVRSEELHWHKDIKGRVILDVENTGWFNKIAQTVFNKPQYTKVHLDAQGTFIWPLIDGKRTVTDIAALVKEEFGEAAEPLYPRIIKYFQIVESYHFIKFANMPSK
soluble on expression in E. coli: not soluble

MLRIGLTGGIGAGKSLLSTTFSQCGGIVVDGDVLAREVVQPGTEGLASLVDAFGRDILLADGALDRQALAAKAFRDDESRGVLNGIVHPLVARRRSEIIAAVSGDAVVVEDIPLLVESGMAPLFPLVVVVHADVELRVRRLVEQRGMAEADARARIAAQASDQQRRAVADVWLDNSGSPEDLVRRARDVWNTRVQPFAHNLAQRQIARAPARLVPADPSWPDQARRIVNRLKIACGHKALRVDHIGSTAVSGFPDFLAKDVIDIQVTVESLDVADELAEPLLAAGYPRLEHITQDTEKTDARSTVGRYDHTDSAALWHKRVHASADPGRPTNVHLRVHGWPNQQFALLFVDWLAANPGAREDYLTVKCDADRRADGELARYVTAKEPWFLDAYQRAWEWADAVHWRP
soluble on expression in E. coli: soluble

MSLKAFLHHLQNEAKLIISLTYCVDGEFALNEIARATLQQYGIVQLSSATNSDSETEAATSKAVKTAYDKAVEAKTTADGKVGLNGNESINGEKTFENRIVAKRNIRISDSPHYASRGDYLNIGANNGDCWFEYKLSNQEIGTLRMHANGDLTYKRQKIYLKMDCWQAIHKRKLKVFTAKRKKREGHHHHHH
soluble on expression in E. coli: not soluble

SGCIGSRTVGNEVIAVDWKGLKDVDQINMDSTSSLHGSSLHRPSTEQTRTDFSWDGINLSMEDTTSILPKLKRNSNAYGIGALAKSSFSGISRSMKDHVTKPTAMGQGRVAHMIEWQGWGKTPAVQPQHSHESVRRDTDAYSDLSDGEKEARFLAGVMEQFAISEATLMAWSSMDGEDMSVNSTQEPLGCNYSDNYQELMDSQDALAQAPMDGWPHSYVSQGMYCLGSSDAWEASDQSLIASPATGSYLGPAFDDSQPSLHEMGPSQPASGYSALEPPPLLGGDTDWAPGVGAVDLARGPAEEEKRPLAPEEGEDAGCQDLESLSPREDPEMSTTLSRKVSDVTSSGVQSFDEEEGEANN
soluble on expression in E. coli: soluble

MIGGSGRFLVNLESLNGVESIGNLTKHRTAPVVLKTSTGYLVRYVPVISGEALAHAYQASLVDIAKKEGLPVGNLSSQYEFIKFSTDEALKIEGIKEPKDYNDARRFEVEVMLKDVIADVGGFMYAGSAPVRRTSRIKLGYMIPALRGDEIPAQLEAQFHVRFSNKPVKGSQAIFNVEVSSALYTFSFELDEDLIAVPSTVGEKVKGEEELERQKARRVDSAIKALYSLLAGNFGGKRSRFLPSMKLMSLVVVKTDFPFIPEPGHDDSYIKTTVMRLEKAKSVLNGNVAKVYVINNEGIEVGEGATVLSSVEDLVAKLKEK
soluble on expression in E. coli: not soluble

MGSDKIHHHHHHMILDPILDMFRGKAVTIPPLDGAFRPNTRLDDAPTFAELTEPDNLLADGGRLLATSGNAIYSLAAGAEPKVIETFPSPITAQALAPSGDLTVALESGKLLTSGKEVSLPADLSCITALAYAEDGTLWLANGSAEHAPSQWAADLMKKGASGSLWKRDATGGAFRKVAGALAFPYGLLPLGGDVLVSESWRHQLIRFDGATGNRSTVLTHLPGYPARLASAGDGGAWLALFAPRNRLIEFVLQETHYRQDMIDQVPPAYWIAPALASNRSFLEPLQCGGIRTMGIHKPWSPSRSYGLVVRLDARMQPQFSLHSRANGTRHGICSVVEKAGRLFIASKGGDCVLDAGGF
soluble on expression in E. coli: not soluble

MSLDWTCKHHADLTLKELYALLQLRTEVFVVEQKCPYQEVDGLDLVGDTHHLMAWRDGQLLAYLRLLDPVRHEGQVVIGRVVSSSAARGQGLGHQLMERALQAAERLWLDTPVYLSAQAHLQAYYGRYGFVAVTEVYLEDDIPHIGMRRA
soluble on expression in E. coli: soluble

MNKKSVGQPPEGLHETKSLASALPEKNAEQRPKYVQIVALPSEIKSRELPIAPDNVVYFNGPTHYLSALYPCTVVVDGNEYNSVEHYYQACKLYVLTGEQSAAQLKASETPIEVKKATKNILKEAKIPAKKISAWKDKDSIAVLKHVIYHKFNQNDELKVKLLDTGDKILIQTYIGDTYFAAGANAKYTSTWVDRHVNQSLKYPENVVVDNVQYLPLVANGKNVLGWILMQVRDELRMRSSA
soluble on expression in E. coli: soluble

MAKNKWQPTKHLGIYEYMTKKGKRYGIRVRYKQGNDYPEINKSGFETIAAAKVYKNNIENLKANKKEYVFTNEKLTLNTWFASYMEMFKKKNKSKDTIANKYSIYNNHLEIPFGNYYLTDISLDIYEDFLREKIKNGYANNSVKAMHKLMKSILNAAVRYEKLEKNRLQFAEIEQLEENEVIELKVLETDEFNVFISACRAFFTKYDFTMIYLAVWGMRRGEVMGVKLKNLTFDDAKQQVRITLDSTRTLRTPEGKGTKTPAGRRILLIDGEGYRLLKYSVEKAVSIAKDHGSVLHQDDFIFRNPTSNRPWAVTRMNDLLRKLEKEYDIKVYPHLLRHNFNTQALLAGANSNDLRKFIGHKNSSMTDHYSHATDEGREKLMNTMKDRLSGI
soluble on expression in E. coli: not soluble

MSLSPAQLAAVRRSFRNGRASLTRRSLLRASAGGALAVGGLGALSACGIPAAGRTEGGVSAEDHSAEEKTINFSNWPEYIDVDDSGKRHPTLDAFAKRTGIQVKYTEDINDNDEFFGKIQPQLAAGQSTGRDLIVLTDWLAARMIRLGYVQKLDPSHLPHAFANLSDQFRAPDWDPGRAYSYPWQGISTVIAYNKKALDGVEVKSVSDLLDNPKLKGRVGFLTEMRDSVGMTMLDMGKDPAKFTDDDYDAVIARLQKAVDKGQIRRFTGNDYTSDLSKGDFAACIAWAGDIVQLQADNPDVGYVIPDSGYMTSTDNMLIPNKARHKTNAERLIDYYYELEPAAELAAYINYVSPVAGVQPYLAKIDKSAADNPLIVPDKAMQAKSHAFRSLSSKEETAYQQKFAKLTGAEGHHHHHH
soluble on expression in E. coli: soluble

MGSDKIHHHHHHMLLDYDVALEDDFQQFIKQIPAPVRALLDSADPVARHQRQAVYTLFGIPGRPATMTPLVEALAMVSTLDTPSFAPTPTINDLALSKAHAYASQYLLQQFIRTVSHTTMLPPANRHELLTAAQSLPLANLNRLRLNFNQRERIADFLKDTKDRPAKLTSLSGYLATSLAGLDPAICGLARAIGESVGIVLTILTDVQVTRQIADFRERLLMGNYPLPLLFGFENDPGYFYDFFHQAHKPTADQFVATQQRVLMIGVAPALTMANELVDQARLDSQQLPTDLKKRVEQALTRLAAATAQPH
soluble on expression in E. coli: not soluble
